The labels stand for the following.
B1: recombinant human RSPO2 (ligand, UniProt Q6UXX9 22-243, looked up)
chain: QGNRWRRSKRASYVSNPICKGCLSCSKDNGCSRCQQKLFFFLRREGMRQYGECLHSCPSGYYGHRAPDMNRCARCRIENCDSCFSKDFCTKCKVGFYLHRGRCFDECPDGFAPLEETMECVEGCEVGHWSEWGTCSRNNRTCGFKWGLETRTRQIVKKPVKDTILCPTIAESRRCKMTMRHCPGGKRTPKAKEKRNKKKKRKLIERAQEQHSVFLATDRANQ
notes: Bought from R&D Systems; also called R-spondin 2
B2: recombinant human RSPO1 (ligand, UniProt Q2MKA7 21-263, looked up)
chain: SRGIKGKRQRRISAEGSQACAKGCELCSEVNGCLKCSPKLFILLERNDIRQVGVCLPSCPPGYFDARNPDMNKCIKCKIEHCEACFSHNFCTKCKEGLYLHKGRCYPACPEGSSAANGTMECSSPAQCEMSEWSPWGPCSKKQQLCGFRRGSEERTRRVLHAPVGDHAACSDTKETRRCTVRRVPCPEGQKRRKGGQGRRENANRNLARKESKEAGAGSRRRKGQQQQQQQGTVGPLTSAGPA
notes: Bought from R&D Systems; also called R-spondin 1
B3: recombinant human RSPO3 (ligand)
chain: QNASRGRRQRRMHPNVSQGCQGGCATCSDYNGCLSCKPRLFFALERIGMKQIGVCLSSCPSGYYGTRYPDINKCTKCKADCDTCFNKNFCTKCKSGFYLHLGKCLDNCPEGLEANNHTMECVSIVHCEVSEWNPWSPCTKKGKTCGFKRGTETRVREIIQHPSAKGNLCPPTNETRKCTVQRKKCQKGERGKKGRERKRKKPNKGESKEAIPDSKSLESSKEIPEQRENKQQQKKRKVQDKQKSVSVSTVH
notes: Bought from R&D Systems; also called R-spondin 3
B4: recombinant human RSPO4 (ligand)
chain: LNRRKKQVGTGLGGNCTGCIICSEENGCSTCQQRLFLFIRREGIRQYGKCLHDCPPGYFGIRGQEVNRCKKCGATCESCFSQDFCIRCKRQFYLYKGKCLPTCPPGTLAHQNTRECQGECELGPWGGWSPCTHNGKTCGSAWGLESRVREAGRAGHEEAATCQVLSESRKCPIQRPCPGERSPGQKKGRKDRRPRKDRKLDRRLDVRPRQPGLQP
notes: Bought from R&D Systems; also called R-spondin 4

In one assay the target is T1, FLAG-LGR6 (human LGR6, predicted mature form aa25-967, N-terminal FLAG tag), expressed on HEK293 cells (human, UniProt Q9HBX8 26-967).
T1 sequence: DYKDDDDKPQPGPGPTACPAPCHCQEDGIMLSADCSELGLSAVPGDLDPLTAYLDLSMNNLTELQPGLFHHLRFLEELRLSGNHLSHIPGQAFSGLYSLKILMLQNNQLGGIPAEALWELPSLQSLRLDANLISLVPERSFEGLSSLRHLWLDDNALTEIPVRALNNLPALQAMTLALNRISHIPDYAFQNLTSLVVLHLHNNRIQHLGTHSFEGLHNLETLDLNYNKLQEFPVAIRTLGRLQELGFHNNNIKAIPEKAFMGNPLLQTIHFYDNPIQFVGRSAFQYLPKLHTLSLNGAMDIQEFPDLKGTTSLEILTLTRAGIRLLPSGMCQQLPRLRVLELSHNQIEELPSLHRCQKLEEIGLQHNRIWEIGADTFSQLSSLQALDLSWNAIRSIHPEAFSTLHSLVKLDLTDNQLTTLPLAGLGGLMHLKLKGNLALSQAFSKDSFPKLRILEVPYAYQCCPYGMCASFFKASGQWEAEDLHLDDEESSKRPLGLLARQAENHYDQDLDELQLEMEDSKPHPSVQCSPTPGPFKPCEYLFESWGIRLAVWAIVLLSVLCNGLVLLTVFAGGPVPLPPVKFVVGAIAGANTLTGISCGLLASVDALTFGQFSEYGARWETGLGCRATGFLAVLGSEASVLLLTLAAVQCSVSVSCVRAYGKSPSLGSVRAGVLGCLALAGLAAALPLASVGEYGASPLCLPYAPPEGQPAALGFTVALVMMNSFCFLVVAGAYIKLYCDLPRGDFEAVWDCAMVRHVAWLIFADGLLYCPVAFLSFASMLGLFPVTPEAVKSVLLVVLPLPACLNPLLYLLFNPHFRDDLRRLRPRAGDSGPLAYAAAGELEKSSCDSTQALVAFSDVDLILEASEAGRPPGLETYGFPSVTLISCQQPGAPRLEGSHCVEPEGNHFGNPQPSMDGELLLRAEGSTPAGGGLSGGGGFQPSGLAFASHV
Briefly: cell-based or functional assay.
For the molecule B1, the “fold change of EC50 against vector-transfected cells, β-catenin reporter” value is 20 fold.

Take B2: the “fold change of EC50 against vector-transfected cells, β-catenin reporter” value is 20 fold.

For another assay, the target named is T2, Myc-LGR4 (mouse LGR4, predicted mature form aa23-951, N-terminal Myc tag), expressed on HEK293 cells (mouse, UniProt A2ARI4 23-951).
T2 construct: range 23-951
T2 sequence: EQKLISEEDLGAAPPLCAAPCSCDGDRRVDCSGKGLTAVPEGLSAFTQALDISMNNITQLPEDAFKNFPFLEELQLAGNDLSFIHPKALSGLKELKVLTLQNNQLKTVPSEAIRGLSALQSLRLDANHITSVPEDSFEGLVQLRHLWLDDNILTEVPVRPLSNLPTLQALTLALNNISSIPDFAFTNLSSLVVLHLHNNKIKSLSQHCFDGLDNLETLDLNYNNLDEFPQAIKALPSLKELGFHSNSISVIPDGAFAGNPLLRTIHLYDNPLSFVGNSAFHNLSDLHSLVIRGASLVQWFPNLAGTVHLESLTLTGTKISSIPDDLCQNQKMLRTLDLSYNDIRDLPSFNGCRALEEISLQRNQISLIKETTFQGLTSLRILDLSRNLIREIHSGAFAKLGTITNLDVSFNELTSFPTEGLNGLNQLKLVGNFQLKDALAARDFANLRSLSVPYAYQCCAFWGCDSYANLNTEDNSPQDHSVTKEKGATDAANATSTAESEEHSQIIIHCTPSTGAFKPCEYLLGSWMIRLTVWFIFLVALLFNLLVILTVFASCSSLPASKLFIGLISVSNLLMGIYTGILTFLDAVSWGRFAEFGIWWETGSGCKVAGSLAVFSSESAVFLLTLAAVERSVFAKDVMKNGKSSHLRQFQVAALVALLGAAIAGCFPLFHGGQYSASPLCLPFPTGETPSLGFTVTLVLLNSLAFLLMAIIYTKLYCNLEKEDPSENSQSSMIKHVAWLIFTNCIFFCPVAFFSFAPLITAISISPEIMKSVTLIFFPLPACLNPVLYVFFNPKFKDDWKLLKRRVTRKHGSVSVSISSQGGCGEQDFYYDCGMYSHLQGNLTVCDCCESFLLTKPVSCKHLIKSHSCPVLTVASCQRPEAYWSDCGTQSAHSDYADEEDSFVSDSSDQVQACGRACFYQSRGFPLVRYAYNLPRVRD
Briefly: whole-cell fluorescence competition binding, displacement of mRSPO1-Fc (~5 nM) from HEK293 cells expressing Myc-LGR4. How it is done:
A fluorescence-based whole-cell competition binding assay was developed to determine whether purified, recombinant RSP01-4 could compete with mRSPO1-Fc for binding to LGR4-6. HEK293 cells stably expressing Myc-LGR4, Myc-LGR5, or FLAG-LGR6 were seeded into poly-D-lysine-coated 96-well black/clear bottom plates (Becton Dickinson) at ˜60,000 cells/well. After overnight culturing, the plates were chilled on ice for 5 min, media were removed from each well, and the cells were washed twice with cold PBS. The recombinant RSPOs under investigation were diluted in 3-fold serial dilutions in cold OPTI-MEM®+0.5% BSA and added onto the cells at 50 μl/well, followed immediately by the addition of equal volume of mRSPO1-Fc diluted by 1:100 in the same buffer. The cells were the incubated for 3.5 hrs at 4° C. with gentle agitation, followed by three quick washes with cold PBS. The cells were then fixed in 4% paraformaldehyde/PBS for 15 min at room temperature and washed 3× with PBS. The cells were further incubated with Alexa Fluor® 647-labeled goat anti-mouse IgG (H+L) (Invitrogen, diluted by 1:200) in OPTI-MEM®+0.5% BSA for 1 hr at room temperature. The cells were washed thrice with PBS and fluorescence intensity was measured using a Tecan M1000 plate reader with excitation at 630 nm and emission at 670 nm. All experiments were performed at least twice with quadruplicate replicates in each experiment. HEK293 cells stably expressing Myc-LGR4 (shown in FIG. 4B), Myc-LGR5 (shown in FIG. 4C), or FLAG-LGR6 (shown in FIG. 4D) were incubated with mRSPO1Fc at ˜5 nM plus serial dilutions of purified recombinant RSPO1-4 for 3-4 hrs at 4° C. Binding of mRSPO1-Fc was detected with Alexa Fluor® 647-labeled anti-mouse IgG. Maximum specific binding is defined by the difference between the data of with and without mRSPO1-Fc which is approximately 50% of total binding in general. All error bars are S.E.M. (n=4). […] As shown in FIGS. 4B-D, RSPO1-4 were able to completely displace the binding of mRSPO1-Fc to LGR4-6 with IC50's in the nM range, the one exception was the μM IC50's for RSPO3 (SEQ ID NO:46; SEQ ID NO:47) and RSPO4 (SEQ ID NO:48; SEQ ID NO:49) binding to LGR4.
For B1, the IC50 was 2.3 nM.

Consider B3, for which the IC50 was 126 nM.

With B2, the half-maximal inhibitory concentration (IC50) was 25 nM.

With B4, the IC50 was 228 nM.
